This note sets out measurements from the supplement of paper PMC5998384.

Data set [1] deals with HeLa Kyoto. Description: solubility change mitosis vs G1/S (difference of NP-40 vs SDS log2 ratios) (log2 ratio difference); higher = more soluble in mitosis.
Data set [2] relates to HeLa Kyoto. Description: solubility in G1/S (NP-40 vs SDS abundance) (log2 ratio); higher = more soluble. As to conditions: cell cycle stage: G1/S.
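Throughout, for solubility change mitosis vs G1/S (difference of NP-40 vs SDS log2 ratios): synchronized HeLa Kyoto cells (double thymidine block for G1/S, nocodazole release for mitosis), protein amounts in NP-40 versus SDS lysates quantified by mass spectrometry, three biological replicates.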
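Throughout, for solubility in G1/S (NP-40 vs SDS abundance): HeLa Kyoto cells arrested at G1/S by double thymidine block, proteins quantified by TMT10plex mass spectrometry in mild NP-40 versus SDS extracts, three biological replicates.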

Sequence of POLR3K (chain, as listed by the source): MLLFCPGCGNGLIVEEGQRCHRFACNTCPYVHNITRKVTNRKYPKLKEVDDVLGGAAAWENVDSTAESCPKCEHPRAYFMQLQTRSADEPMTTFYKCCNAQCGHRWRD

Take “MPSSTSPDQGDDLENCILRFSDLDLKDMSLINPSSSLKAELDGSTKKKYSFAKKKAFALFVKTKEVPTKRSFECKEKLWKCCRQLFTDQTSIHRHVATQHADEIYHQTASILKQLAVTLSTSKSLSSADEKNPLKECLPHSHDVSAWLPDISCFNPDELISGQGSEEGEVLLYYCYHDLEDPQWICAWQTALCQHLHLTGKIRIAAEGINGTVGGSKLATRLYVEVMLSFPLFKDDLCKDDFKTSKGGAHCFPELRVGVFEEIVPMGISPKKISYKKPGIHLSPGEFHKEVEKFLSQANQEQSDTILLDCRNFYESKIGRFQGCLAPDIRKFSYFPSYVDKNLELFREKRVLMYCTGGIRCERGSAYLKAKGVCKEVFQLKGGIHKYLEEFPDGFYKGKLFVFDERYALSYNSDVVSECSYCGARWDQYKLCSTPQCRQLVLTCPACQGQGFTACCVTCQDKGSRKVSGPMQDSFKEECECTARRPRIPRELLQHVRQPVSPEPGPDADEDGPVLM [TSTD2]”: the “solubility change mitosis (log2)” value in data set [1] was -0.113. In data set [2], the “solubility in G1/S (log2)” value was found to be 0.0173.
Regarding “MSGSHTPACGPFSALTPSIWPQEILAKYTQKEESAEQPEFYYDEFGFRVYKEEGDEPGSSLLANSPLMEDAPQRLRWQAHLEFTHNHDVGDLTWDKIAVSLPRSEKLRSLVLAGIPHGMRPQLWMRLSGALQKKRNSELSYREIVKNSSNDETIAAKQIEKDLLRTMPSNACFASMGSIGVPRLRRVLRALAWLYPEIGYCQGTGMVAACLLLFLEEEDAFWMMSAIIEDLLPASYFSTTLLGVQTDQRVLRHLIVQYLPRLDKLLQEHDIELSLITLHWFLTAFASVVDIKLLLRIWDLFFYEGSRVLFQLTLGMLHLKEEELIQSENSASIFNTLSDIPSQMEDAELLLGVAMRLAGSLTDVAVETQRRKHLAYLIADQGQLLGAGTLTNLSQVVRRRTQRRKSTITALLFGEDDLEALKAKNIKQTELVADLREAILRVARHFQCTDPKNCSVELTPDYSMESHQRDHENYVACSRSHRRRAKALLDFERHDDDELGFRKNDIITIVSQKDEHCWVGELNGLRGWFPAKFVEVLDERSKEYSIAGDDSVTEGVTDLVRGTLCPALKALFEHGLKKPSLLGGACHPWLFIEEAAGREVERDFASVYSRLVLCKTFRLDEDGKVLTPEELLYRAVQSVNVTHDAVHAQMDVKLRSLICVGLNEQVLHLWLEVLCSSLPTVEKWYQPWSFLRSPGWVQIKCELRVLCCFAFSLSQDWELPAKREAQQPLKEGVRDMLVKHHLFSWDVDG [SGSM3]”, the “solubility change mitosis (log2)” value in data set [1] is 0.011. For the same substance, the “solubility in G1/S (log2)” value in data set [2] is -0.177.
“MEDGTPKHIIQMTGFKMEEKEALVKLLLKLDCTFIKSEKYKNCTHLIAERLCKSEKFLAACAAGKWILTKDYIIHSAKSGRWLDETTYEWGYKIEKDSRYSPQMQSAPKRWREELKRTGAPGAFHRWKVVLLVRTDKRSDSLIRVLEAGKANVILPKSSPSGITHVIASNARIKAEKEKDNFKAPFYPIQYLGDFLLEKEIQNDEDSQTNSVWTEHSNEETNKDFRKDAGFLEMKGALRETMYRTQKEMQNHEDVNVGSILIQHHKKEKFSGSSKDLKFVKMRNTFGSHTYENQKEIKKKDEDIQRSYTLRRKRKKGKESNCKKGVEHEKIKSTLRRHIYNRDQKEMKNSIFAEYAKESKAMAIKTDVDVVEIKNTLRKHIYRAQAVRYNCIRIDKQPVYNVEVKNAEFPRGVLNLIESLIEGHFFKEAIEELSTLQAHYIPPVCVLHALLENVLQDNIDTFSGRYFHILSALLHLHPPWKSPAMSRYYLELFQCPTCMKGAWSLVEVLIRSCLFNESFCHQISENIGSKVLHLTLLKFFFNLIESEVQHLSQKLYDWSDSQNLKITGKAMLLEIFWSGSETSGLLTKPVNMLLEWTIYSHKEKFKSNDVFKHELAYLLAGILGAAIDYWIFLGLKMGRNVMRHMSDDLGSYVSLSCDDFSSQELEIFICSFSSSWLQMFVAEAVFKKLCLQSSGSVSSEPLSLQKMVYSYLPALGKTGVLGSGKIQVSKKIGQRPCFDSQRTLLMLNGTKQKQVEGLPELLDLNLAKCSSSLKKLKKKSEGELSCSKENCPSVVKKMNFHKTNLKGETALHRACINNQVEKLILLLSLPGIDINVKDNAGWTPLHEACNYGNTVCVQEILQRCPEVDLLTQVDGVTPLHDALSNGHVEIGKLLLQHGGPVLLQQRNAKGELPLDYVVSPQIKEELFAITKIEDTVENFHAQAEKHFHYQQLEFGSFLLSRMLLNFCSIFDLSSEFILASKGLTHLNELLMACKSHKETTSVHTDWLLDLYAGNIKTLQKLPHILKELPENLKVCPGVHTEALMITLEMMCRSVMEFS [SLF1]”: the “solubility change mitosis (log2)” value in data set [1] turned out to be 0.644. In data set [2], the “solubility in G1/S (log2)” value is -0.991.
On to “MGELCRRDSALTALDEETLWEMMESHRHRIVRCICPSRLTPYLRQAKVLCQLDEEEVLHSPRLTNSAMRAGHLLDLLKTRGKNGAIAFLESLKFHNPDVYTLVTGLQPDVDFSNFSGLMETSKLTECLAGAIGSLQEELNQEKGQKEVLLRRCQQLQEHLGLAETRAEGLHQLEADHSRMKREVSAHFHEVLRLKDEMLSLSLHYSNALQEKELAASRCRSLQEELYLLKQELQRANMVSSCELELQEQSLRTASDQESGDEELNRLKEENEKLRSLTFSLAEKDILEQSLDEARGSRQELVERIHSLRERAVAAERQREQYWEEKEQTLLQFQKSKMACQLYREKVNALQAQVCELQKERDQAYSARDSAQREISQSLVEKDSLRRQVFELTDQVCELRTQLRQLQAEPPGVLKQEARTREPCPREKQRLVRMHAICPRDDSDCSLVSSTESQLLSDLSATSSRELVDSFRSSSPAPPSQQSLYKRVAEDFGEEPWSFSSCLEIPEGDPGALPGAKAGDPHLDYELLDTADLPQLESSLQPVSPGRLDVSESGVLMRRRPARRILSQVTMLAFQGDALLEQISVIGGNLTGIFIHRVTPGSAADQMALRPGTQIVMVDYEASEPLFKAVLEDTTLEEAVGLLRRVDGFCCLSVKVNTDGYKRLLQDLEAKVATSGDSFYIRVNLAMEGRAKGELQVHCNEVLHVTDTMFQGCGCWHAHRVNSYTMKDTAAHGTIPNYSRAQQQLIALIQDMTQQCTVTRKPSSGGPQKLVRIVSMDKAKASPLRLSFDRGQLDPSRMEGSSTCFWAESCLTLVPYTLVRPHRPARPRPVLLVPRAVGKILSEKLCLLQGFKKCLAEYLSQEEYEAWSQRGDIIQEGEVSGGRCWVTRHAVESLMEKNTHALLDVQLDSVCTLHRMDIFPIVIHVSVNEKMAKKLKKGLQRLGTSEEQLLEAARQEEGDLDRAPCLYSSLAPDGWSDLDGLLSCVRQAIADEQKKVVWTEQSPR [CARD14]”, for which, in data set [1], the “solubility change mitosis (log2)” value was determined as 0.0129. Also, the “solubility in G1/S (log2)” value in data set [2] is -0.00296.
As for “MVPPVQVSPLIKLGRYSALFLGVAYGATRYNYLKPRAEEERRIAAEEKKKQDELKRIARELAEDDSILK [ATP5I]”, the “solubility change mitosis (log2)” value in data set [1] was found to be 0.197. Also, the “solubility in G1/S (log2)” value in data set [2] is -0.147.
Regarding “MKTVLMVAEKPSLAQSIAKILSRGSLSSHKGLNGACSVHEYTGTFAGQPVRFKMTSVCGHVMTLDFLGKYNKWDKVDPAELFSQAPTEKKEANPKLNMVKFLQVEGRGCDYIVLWLDCDKEGENICFEVLDAVLPVMNKAHGGEKTVFRARFSSITDTDICNAMACLGEPDHNEALSVDARQELDLRIGCAFTRFQTKYFQGKYGDLDSSLISFGPCQTPTLGFCVERHDKIQSFKPETYWVLQAKVNTDKDRSLLLDWDRVRVFDREIAQMFLNMTKLEKEAQVEATSRKEKAKQRPLALNTVEMLRVASSSLGMGPQHAMQTAERLYTQGYISYPRTETTHYPENFDLKGSLRQQANHPYWADTVKRLLAEGINRPRKGHDAGDHPPITPMKSATEAELGGDAWRLYEYITRHFIATVSHDCKYLQSTISFRIGPELFTCSGKTVLSPGFTEVMPWQSVPLEESLPTCQRGDAFPVGEVKMLEKQTNPPDYLTEAELITLMEKHGIGTDASIPVHINNICQRNYVTVESGRRLKPTNLGIVLVHGYYKIDAELVLPTIRSAVEKQLNLIAQGKADYRQVLGHTLDVFKRKFHYFVDSIAGMDELMEVSFSPLAATGKPLSRCGKCHRFMKYIQAKPSRLHCSHCDETYTLPQNGTIKLYKELRCPLDDFELVLWSSGSRGKSYPLCPYCYNHPPFRDMKKGMGCNECTHPSCQHSLSMLGIGQCVECESGVLVLDPTSGPKWKVACNKCNVVAHCFENAHRVRVSADTCSVCEAALLDVDFNKAKSPLPGDETQHMGCVFCDPVFQELVELKHAASCHPMHRGGPGRRQGRGRGRARRPPGKPNPRRPKDKMSALAAYFV [TOP3B]”, in data set [1], the “solubility change mitosis (log2)” value amounted to 0.0647. The “solubility in G1/S (log2)” value in data set [2] is -0.535.
On to “MQSESGIVPDFEVGEEFHEEPKTYYELKSQPLKSSSSAEHPGASKPPISSSSMTSRILLRQQLMREQMQEQERREQQQKLQAAQFMQQRVPVSQTPAINVSVPTTLPSATQVPMEVLKVQTHLENPTKYHIQQAQRQQVKQYLSTTLANKHANQVLSLPCPNQPGDHVMPPVPGSSAPNSPMAMLTLNSNCEKEGFYKFEEQNRAESECPGMNTHSRASCMQMDDVIDDIISLESSYNEEILGLMDPALQMANTLPVSGNLIDLYGNQGLPPPGLTISNSCPANLPNIKRELTACIFPTESEARALAKERQKKDNHNLIERRRRFNINDRIKELGTLIPKSNDPDMRWNKGTILKASVDYIRKLQREQQRAKELENRQKKLEHANRHLLLRIQELEMQARAHGLSLIPSTGLCSPDLVNRIIKQEPVLENCSQDLLQHHADLTCTTTLDLTDGTITFNNNLGTGTEANQAYSVPTKMGSKLEDILMDDTLSPVGVTDPLLSSVSPGASKTSSRRSSMSMEETEHTC [MITF]”, for which the “solubility change mitosis (log2)” value in data set [1] amounted to 0.021. In addition, in data set [2], the “solubility in G1/S (log2)” value is 0.326.
As for “MLFTVSCSKMSSIVDRDDSSIFDGLVEEDDKDKAKRVSRNKSEKKRRDQFNVLIKELGSMLPGNARKMDKSTVLQKSIDFLRKHKEITAQSDASEIRQDWKPTFLSNEEFTQLMLEALDGFFLAIMTDGSIIYVSESVTSLLEHLPSDLVDQSIFNFIPEGEHSEVYKILSTHLLESDSLTPEYLKSKNQLEFCCHMLRGTIDPKEPSTYEYVKFIGNFKSLNSVSSSAHNGFEGTIQRTHRPSYEDRVCFVATVRLATPQFIKEMCTVEEPNEEFTSRHSLEWKFLFLDHRAPPIIGYLPFEVLGTSGYDYYHVDDLENLAKCHEHLMQYGKGKSCYYRFLTKGQQWIWLQTHYYITYHQWNSRPEFIVCTHTVVSYAEVRAERRRELGIEESLPETAADKSQDSGSDNRINTVSLKEALERFDHSPTPSASSRSSRKSSHTAVSDPSSTPTKIPTDTSTPPRQHLPAHEKMVQRRSSFSSQSINSQSVGSSLTQPVMSQATNLPIPQGMSQFQFSAQLGAMQHLKDQLEQRTRMIEANIHRQQEELRKIQEQLQMVHGQGLQMFLQQSNPGLNFGSVQLSSGNSSNIQQLAPINMQGQVVPTNQIQSGMNTGHIGTTQHMIQQQTLQSTSTQSQQNVLSGHSQQTSLPSQTQSTLTAPLYNTMVISQPAAGSMVQIPSSMPQNSTQSAAVTTFTQDRQIRFSQGQQLVTKLVTAPVACGAVMVPSTMLMGQVVTAYPTFATQQQQSQTLSVTQQQQQQSSQEQQLTSVQQPSQAQLTQPPQQFLQTSRLLHGNPSTQLILSAAFPLQQSTFPQSHHQQHQSQQQQQLSRHRTDSLPDPSKVQPQ [CLOCK]”, the “solubility change mitosis (log2)” value in data set [1] is -0.192. Moreover, the “solubility in G1/S (log2)” value in data set [2] amounted to 0.134.
Consider MYO9A, for which, in data set [1], the “solubility change mitosis (log2)” value is 0.00755. Moreover, the “solubility in G1/S (log2)” value in data set [2] is -0.102.
Regarding POLR3K, the “solubility change mitosis (log2)” value in data set [1] is 0.031. Further, the “solubility in G1/S (log2)” value in data set [2] is 0.354.
